T1: human IL-22 binding protein-Fc fusion (human, UniProt Q969J5-2 22-231, limits assumed)
T1 construct: Fc fusion homodimer, used as CHO conditioned medium; also called IL-22BP-Fc; huIL22BP-huFc; not shown: human IgG1 Fc
T1 sequence: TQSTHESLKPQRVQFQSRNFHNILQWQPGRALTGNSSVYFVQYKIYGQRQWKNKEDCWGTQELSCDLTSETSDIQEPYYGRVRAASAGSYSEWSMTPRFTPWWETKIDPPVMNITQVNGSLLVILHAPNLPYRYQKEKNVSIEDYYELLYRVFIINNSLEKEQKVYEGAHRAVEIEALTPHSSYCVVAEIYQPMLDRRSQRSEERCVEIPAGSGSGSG

T2: IL-22R-Fc/IL-10R2-Fc heterodimer from co-expressing CHO cells (human, UniProt Q8N6P7 16-228; Q08334 20-220)
T2 construct: extracellular domain; also called IL-22R/IL-10R2-Fc heterodimer; IL-22R-Fc/IL-10R2-Fc complex; not shown: human IgG1 Fc
T2 sequence 1: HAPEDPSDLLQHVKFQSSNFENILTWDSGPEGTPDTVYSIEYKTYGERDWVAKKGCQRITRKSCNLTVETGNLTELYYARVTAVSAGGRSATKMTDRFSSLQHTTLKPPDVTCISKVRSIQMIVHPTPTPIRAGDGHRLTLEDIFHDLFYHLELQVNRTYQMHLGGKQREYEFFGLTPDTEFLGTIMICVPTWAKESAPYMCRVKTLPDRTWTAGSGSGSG
T2 sequence 2: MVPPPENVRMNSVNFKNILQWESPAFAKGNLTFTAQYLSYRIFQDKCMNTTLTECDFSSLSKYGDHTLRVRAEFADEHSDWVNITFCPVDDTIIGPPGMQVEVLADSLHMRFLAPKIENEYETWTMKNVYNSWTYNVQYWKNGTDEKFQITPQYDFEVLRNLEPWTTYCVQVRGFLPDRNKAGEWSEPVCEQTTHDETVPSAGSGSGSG

T3: human IL-22R extracellular domain-Fc fusion homodimer (human, UniProt Q8N6P7 16-228)
T3 construct: extracellular domain; Used as CHO conditioned medium, not purified; also called IL-22R-Fc; IL-22RECD-Fc; not shown: human IgG1 Fc
T3 sequence: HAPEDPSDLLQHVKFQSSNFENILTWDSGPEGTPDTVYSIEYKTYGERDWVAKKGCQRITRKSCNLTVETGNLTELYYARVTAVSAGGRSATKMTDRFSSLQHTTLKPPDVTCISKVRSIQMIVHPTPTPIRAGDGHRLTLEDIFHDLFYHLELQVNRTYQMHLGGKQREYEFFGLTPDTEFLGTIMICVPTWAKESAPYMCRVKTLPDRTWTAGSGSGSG


Key:
[1] = target: T1, human IL-22 binding protein-Fc fusion; assay: BIAcore, Fc fusion from conditioned medium captured by anti-human IgG, IL-22 injected, 1:1 model
Procedure: (§1) The surface was activated with EDC/NHS. The capturing antibody was injected at a concentration of 50 ug/ml in sodium acetate buffer (pH 4.5), the Protein-A was injected at a concentration of 50 ug/ml in sodium acetate buffer (pH 4.0), or test protein was directly injected at a concentration of 0.01-1 ug/ml in sodium acetate buffer (pH 5.0). The immobilization was done using the wizard tools with aim of 10.000 resonance units (RUs) for the anti-hu or anti-rat IgG, 3000 (RUs) for the Protein-A and […] (RUs) for the directly immobilized testing protein. Remaining activated groups were blocked with 1.0 M ethanolamine (pH 8.0). As control the first flow cell was used as reference surface to correct for bulk refractive index, matrix effects and non-specific binding, the second, third and four flow cells were coated with the capturing molecule.
(§2) For kinetic analysis, condition media containing IL-22R-Fc, IL-10R2-Fc, IL-22R-Fc/IL-10R2-Fc receptor complex or IL-22BP-Fc protein were captured onto the anti-human IgG antibody or protein A surfaces. The rat antibodies were captured onto the anti-rat IgG antibody surface, by injecting 60 ul of a 400 ng/ml solution. […] The dissociation phase was monitored in HBS/EP buffer for 10 minutes at the same flow rate followed by 5 ul injection of 0.1% TFA and 5 ul injection of glycine pH 1.5 to regenerate a fully active capturing surface. […]

[2] = target: T2, IL-22R-Fc/IL-10R2-Fc heterodimer from …; assay: BIAcore, receptor-Fc from conditioned medium captured by anti-human IgG, IL-22 injected, 1:1 model
Procedure: as §1, §2

[3] = target: T3, human IL-22R extracellular domain-Fc …; assay: as above
Procedure: as §1, §2

[4] = target: T3, human IL-22R extracellular domain-Fc …; assay: sandwich ELISA: rabbit anti-hIL-22R coat, 1:1 mixture of IL-22R-Fc and IL-10R2-Fc media titrated, biotinylated goat anti-hIL-10R2 then streptavidin-HRP, A450
Procedure: Monomeric IL-22RECD-Fc and IL-10R2ECD-Fc fusions were determined to have molecular weights of ˜60 kD and ˜85 kD, respectively. Reduced and non-reduced conditioned media (CM) from CHO cells expressing either or both receptor Fc fusions was separated on SDS-PAGE gels and blotted to a membrane which was then probed with polyclonal antibodies directed against either human IgG Fc, IL-22R or IL-10R2. More specifically, in FIG. 7A, conditioned media from CHO cells expressing either IL-22R-Fc, IL-10R2-Fc or both receptor Fc were separated on 8% polyacyrlamide gels under both reduced (+βME) and non-reduced (−βME) conditions and transferred to membrane blots. Western blots were carried out using any of anti-human IgG1, anti-hIL-22R or anti-hIL-10R2 antibodies. For anti-hIgG detection of a blot, 4 ng total Fc fusion in CM was loaded in each lane. For anti-IL-22R and anti-IL-10R2 antibody detection, 16 ng total Fc fusion in CM from co-expressing CHO was used. […] The bound receptors were detected using a biotinylated goat anti-human IL-10R2 antibody, followed by streptavidin-HRP.
The presence of heterodimers in the CM from CHO cells was verified by sandwich ELISA, using antibodies specific for each chain of the heterodimer. Conditioned media was added to wells coated with an IL-22R polyclonal antibody and bound protein was then detected with a biotinylated IL-10R2 polyclonal antibody. […]

Binder | Kd [1] [nM] | Kd [2] [nM] | Kd [3] [nM] | binding result [4]
N terminal His/Flag tagged human IL-22 (ligand, Made in CHO cells, extensively N-glycosylated; also called human h/f tagged IL-22; hIL-22) GSGHHHHHHGSGDYKDDDDKAPISSHCRLDKSNFQQPYITNRTFMLAKEASLADNNTDVRLIGEKLFHGVSMSERCYLMKQVLNFTLEEVLFPQSDRFQPYMQEVVPFLARLSNRLSTCHIEGDDLHIQRNVQKLKDTVKKLGESGEIKAIGELDLLFMSLRNACI | 3.37 | 1.48 | 41 | 
human IL-10R2 extracellular domain-Fc fusion homodimer (Fc fusion, extracellular domain; Used as CHO conditioned medium, not purified; also called IL-10R2-Fc; IL-10R2ECD-Fc; not shown: human IgG1 Fc) MVPPPENVRMNSVNFKNILQWESPAFAKGNLTFTAQYLSYRIFQDKCMNTTLTECDFSSLSKYGDHTLRVRAEFADEHSDWVNITFCPVDDTIIGPPGMQVEVLADSLHMRFLAPKIENEYETWTMKNVYNSWTYNVQYWKNGTDEKFQITPQYDFEVLRNLEPWTTYCVQVRGFLPDRNKAGEWSEPVCEQTTHDETVPSAGSGSGSG |  |  |  | no binding (tested: 100 ng/ml total Fc fusion)

— patent US20050042220A1 (GENETICS INSTITUTE, published 2005)
